Consider 16 molecules from patent US20120309934A1 (GWANGJU INSTITUTE OF SCIENCE AND TECHNOLOGY, published 2012).

The target in assay [1] is T1, GST-AR DBD protein (androgen receptor DNA binding domain with N-terminal GST) (UniProt P10275 556-636).
T1 construct: In ELISA and EMSA the text calls the protein AR-DBD or AR DBD protein; also called androgen receptor DBD; not shown: GST encoded by the pGEX-4T-1 vector, N-terminal
T1 sequence (looked up): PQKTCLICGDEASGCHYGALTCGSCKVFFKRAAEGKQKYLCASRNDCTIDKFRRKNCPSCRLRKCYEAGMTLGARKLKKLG
Description: phage ELISA of single clones on AR-DBD against BSA. The protocol: AR-DBD (10 μg/ml) and BSA (10 μg/ml) each was added to 30 wells (50 μl per well) in a 96-well ELISA plate and then kept to stand at 4° C. overnight. Next day, all wells were washed with 0.1% PBST three times, and blocked at room temperature for 2 hrs using 2% skim milk diluted with PBS. Then, the solution was removed and the plate was washed with 0.1% PBST three times. Phage peptide solution (100 μl) amplified from each clone was aliquoted to […] protein-bound wells and BSA protein-bound wells and kept to stand at 27° C. for 1.5 hrs. After washing with 0.1% PBST 10 times, HRP-conjugated anti-M13 antibodies (1:1,000 dilution; GE Healthcare) were added to each well and incubated at 27° C. for 1 hr. After washing with 0.1% PBST 5 times, 100 μl TMB was divided into each well to induce colorimetric reaction, followed by stopping the reaction adding 100 μl of 1 M HCl. The absorbance was measured at 450 nm to select phages which had the absorbance above 20-fold higher than BSA. XL1 cells were infected with these phages and spread in plate to produce 100-200 of plaques. […]
The phages recovered from the 5th biopanning step having the highest O/I ratio in each library were isolated as plaques. […] Most plaques were analyzed to show the absorbance value of AR-DBD higher than that of BSA. The DNA sequencing was performed for 20 clones showing the absorbance value above 5-fold higher than BSA. […]
Background: An ELISA detects its analyte on a solid surface through an enzyme-linked reagent.

For assay [2], the target named is T2, Fibronectin ED-B protein (human fibronectin extra domain B, N-terminal His-tag) (human, UniProt P02751 1266-1356, biotinylated with sulfo-NHS-SS-biotin for biopanning, input-phage ELISA and SPR on the streptavidin chip).
T2 construct: domain: ED-B; Expressed in E. coli BL21 from pET28b; also called biotinylated-EDB; not shown: N-terminal His-tag from the pET28b vector
Description: SPR (BIAcore X), biotinylated ED-B on SA chip. The protocol: (§1) In addition to tryptophan zipper, GB1 m3 and HP7 peptide as a type of other (3-hairpin backbones were synthesized to contain N-terminal sequence (HCSSAV) and C-terminal sequence (IIRLEQ) of peptide 2 which is specifically bound to ED-B (Anigen, Korea). In other words, the sequence of bipodal-peptide binder in tryptophan zipper is […], and in GB1 m3 and HP7 are […] and […], respectively. Affinity of each peptide was measured using BIAcore X (Biacore AB, Uppsala, Sweden). ED-B was immobilized on streptavidin (SA) chip (Biacore) by injecting 2,000 RU biotinylated-EDB. PBS (pH 7.4) was used as a running buffer. […] It could be appreciated that all stable β-hairpin motifs may function as a structure stabilizing region.
Background: Surface plasmon resonance follows binding to a sensor surface in real time, without labels.

Assay [3] has as its target T2, Fibronectin ED-B protein (human …). Description: SPR (BIAcore X), 2,000 RU biotinylated ED-B on streptavidin chip, PBS pH 7.4, 30 µl/min. The protocol:
as §1

The target of assay [4] is T3, VEGF121 (human vascular endothelial growth factor) (human, UniProt P15692-9 27-147).
T3 construct: Immobilised on a CM5 chip by EDC/NHS for SPR and coated on plates for phage ELISA; also called VEGF-Trx cut with thrombin
T3 sequence (looked up): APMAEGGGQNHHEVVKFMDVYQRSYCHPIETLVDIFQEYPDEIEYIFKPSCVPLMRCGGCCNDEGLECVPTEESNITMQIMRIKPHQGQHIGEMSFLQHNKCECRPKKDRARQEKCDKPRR
Description: SPR (BIAcore X), VEGF on CM5 chip. The protocol:
(§2) Bipodal-peptide binder peptides specific to ED-B, VEGF or nAchR which were repetitively found in DNA sequencing were synthesized from Anigen Inc. (Korea). Affinity was measured using BIAcore X instrument (Biacore AB, Uppsala, Sweden). ED-B and nAchR were immobilized on streptavidin (SA) chip (Biacore) by injecting 2,000 RU biotinylated-EDB. VEGF was immobilized on CM5 chip (Biacore) using EDC/NHS. PBS (pH 7.4) was used as a running buffer.
(§3) The above-mentioned peptides were synthesized and their affinities to fibronectin ED-B, VEGF, VCAM1, nAchR and HAS were measured using SPR Biacore system (Biacore AB, Uppsala, Sweden).

Assay [5] has as its target T3, VEGF121 (human vascular endothelial …). As to the kind of experiment: SPR (BIAcore X), VEGF on CM5 chip, synthetic peptide as analyte. The protocol: as §2, §3
The target of assay [6] is T4, Peptide fragment of nAchR (Nicotinic acetylcholine receptor), 32 mer, biotinylated (N-terminal biotin).
T4 construct: Synthesised by Anigen; Immobilised on a streptavidin chip for SPR; also called biotinylated nAchR; biotinylated-nAchR peptide
T4 peptide: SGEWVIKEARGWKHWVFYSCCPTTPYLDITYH
As to the kind of experiment: phage ELISA: clones with higher absorbance than on BSA, sequenced. The protocol:
(§4) The transformed cells were infected with Ex helper phages (5×10⁹ pfu/ml; OD=0.8-1.0) and cultured at 37° C. for 1 hr with shaking at 200 rpm. After removing the supernatant by centrifuging at 1,000×g for 10 min, the precipitated cells were resuspended in 1 ml LB liquid media supplemented with 50 μg/ml ampicillin and 25 μg/ml kanamycin, and cultured at 30° C. overnight with shaking at 200 rpm. The supernatant was collected by centrifuging at 10,000×g for 20 min at 4° C. and mixed with 2% skim milk, which is used in detection of phage peptides.
(§5) Fibronectin ED-B, VEGF, VCAM1, Nicotinic acetylcholine receptor (nAchR), Human serum albumin and MyD88 (each 5 μg/ml) and BSA (10 μg/ml) were added to 30 wells (50 μl per well) in a 96-well ELISA plate and then kept to stand at 4° C. overnight. Next day, all wells were washed with 0.1% PBST three times, and blocked at room temperature for 2 hrs using 2% skim milk diluted with PBS. Then, the solution was removed and the plate was washed with 0.1% PBST three times. Phage peptide solution (100 μl) amplified from each clone was divided into all wells and kept to stand at 27° C. for 1.5 hrs. After washing with 0.1% PBST 5 times, HRP-conjugated anti-M13 antibodies (1:1,000 dilution; GE Healthcare) were added to each well and incubated at 27° C. for 1 hr. After washing with 0.1% PBST 5 times, 100 μl TMB was divided into each well to induce colorimetric reaction, followed by stopping the reaction adding 100 μl of 1 M HCl. The absorbance was measured at 450 nm to select phages which had the absorbance higher than BSA. XL1 cells were infected with these phages and spread in plate to produce 100-200 of plaques. Using a sterile tip, plaques were inoculated in 4 ml LB-ampicillin (50 μg/ml) media and cultured at 37° C. overnight with vigorous shaking. Plasmids were purified by plasmid preparation kit (GeneAll, Seoul, Korea), and then sequenced. The following phagemid sequence was used for sequencing: 5′-[…]-3′.
(§6) The phages recovered from biopanning step having the highest ratio of output phage to input phage were isolated as plaques. Sixty plaques were amplified from each plaque, and then ELISA for BSA was carried out (FIG. 4). After selecting clones with higher absorbance compared to BSA, they were sequenced. We isolated peptides specific to each protein which were repetitively found in DNA sequencing (Table 3).

In assay [7] the target is T2, Fibronectin ED-B protein (human …). Description: SPR (BIAcore X), biotinylated ED-B on streptavidin chip, synthetic peptide as analyte. The protocol: as §2, §3
Assay [8] shares this target. As to the kind of experiment: SPR (BIAcore X), biotinylated ED-B on SA chip. The protocol: as §2, §3
The source holds these as a separate data set.

Assay [9] has the same target. Description: SPR, synthetic truncated peptide on ED-B. The protocol: as §2
(§7) To verify cooperative effect of bipodal-peptide binder to antigen, we synthesized two peptides removing either N- or C-terminal region of peptide 2 to ED-B having excellent specificity in Table 3a for affinity measurement.

For assay [10] the target is unchanged. As to the kind of experiment: SPR (Biacore), ED-B. The protocol: as §2, §7
The next assay deals with T5, Human serum albumin (human, UniProt P02768 25-609).
T5 construct: Bought protein; also called HSA; HAS
As to the kind of experiment: phage ELISA: clones with higher absorbance than on BSA, sequenced. The protocol:
as §4, §5, §6

Assay [11] addresses T3, VEGF121 (human vascular endothelial …). The description is as above. The protocol: as §4, §5, §6

T5 sequence (P02768 25-609 limits assumed): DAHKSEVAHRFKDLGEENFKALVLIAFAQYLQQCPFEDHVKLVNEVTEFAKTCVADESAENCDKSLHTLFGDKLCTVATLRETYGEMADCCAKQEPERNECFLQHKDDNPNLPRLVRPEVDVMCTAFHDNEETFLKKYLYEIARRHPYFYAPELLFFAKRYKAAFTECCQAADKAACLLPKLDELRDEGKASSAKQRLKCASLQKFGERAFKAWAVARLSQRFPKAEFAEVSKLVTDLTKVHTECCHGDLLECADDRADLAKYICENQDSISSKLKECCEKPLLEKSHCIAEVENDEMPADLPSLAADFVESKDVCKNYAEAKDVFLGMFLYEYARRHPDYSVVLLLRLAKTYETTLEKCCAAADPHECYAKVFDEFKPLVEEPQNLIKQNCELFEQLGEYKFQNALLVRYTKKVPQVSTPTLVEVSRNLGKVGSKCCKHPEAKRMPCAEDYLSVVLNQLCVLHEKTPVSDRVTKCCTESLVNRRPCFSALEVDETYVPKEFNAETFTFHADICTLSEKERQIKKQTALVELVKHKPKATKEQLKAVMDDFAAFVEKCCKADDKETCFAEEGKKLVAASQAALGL
T2 sequence (P02751 1266-1356): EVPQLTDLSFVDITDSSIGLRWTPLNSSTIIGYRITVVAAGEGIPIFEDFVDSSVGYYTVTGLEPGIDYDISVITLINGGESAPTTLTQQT

Consider YGFAPFGSWTWENGKWTWKGYSTQKP [Peptide 1 from the AR-DBD biopanning (14/20 clones), bipodal-peptide binder], for which the “fold absorbance over BSA” value in [1] is > 5 fold.
Regarding HCSSAVGKKWTYNPATGKFTVQEGIIRLEQ (Synthetic peptide (Anigen)) [Bipodal-peptide binder with GB1 m3 β-hairpin backbone carrying the ED-B peptide 2 binding regions], in assay [2], the off-rate constant (koff) came to 0.0119 s⁻¹ and the kon was found to be 169000 M⁻¹ s⁻¹. This molecule displayed a Kd in assay [3] of 70 nM.
In assay [4], ASPFWAGSWTWENGKWTWKGWVPSNA [Peptide 2 specific to VEGF (Table 3b), bipodal-peptide binder] gave an off-rate (koff) of 0.011 s⁻¹ and a kon of 35000 M⁻¹ s⁻¹. Further, the affinity in assay [5], expressed as Kd, was 326 nM.
On to ASLPAWGSWTWENGKWTWKGWSTRTA [Peptide 3 specific to nAchR (Table 3d), bipodal-peptide binder], for which the binding result in assay [6] is “binds”.
Molecule HSQGSPGSWTWENGKWTWKGRYSHRA [Peptide 3 specific to fibronectin ED-B (Table 3a), bipodal-peptide binder] yielded a Kd in assay [7] of 2500 nM. In assay [8], this molecule showed a koff of 0.099 s⁻¹ and a kon of 390000 M⁻¹ s⁻¹.
In assay [2], HCSSAVGKTWNPATGKWTEGIIRLEQ (Synthetic peptide (Anigen)) [Bipodal-peptide binder with HP7 β-hairpin backbone carrying the ED-B peptide 2 binding regions] gave a koff of 0.0197 s⁻¹ and an association rate constant (kon) of 236000 M⁻¹ s⁻¹. This molecule also gave a Kd in assay [3] of 84 nM.
GSWTWENGKWTWKGIIRLEQ [C-terminal region peptide derived from ED-B peptide 2 (monopodal, one target binding region removed)]: binding in assay [9] was characterised by a dissociation constant (Kd) of 12800 nM. In assay [10], this molecule had a koff of 0.022 s⁻¹ and a kon of 1770 M⁻¹ s⁻¹.
As to YAHVYYGSWTWENGKWTWKGHRVTQT [Peptide 3 specific to HSA (Table 3e), bipodal-peptide binder], the binding result in the assay with Human serum albumin is given as “binds”.
With HAFYYTGSWTWENGKWTWKGWPVTTS [Peptide 3 specific to VEGF (Table 3b), bipodal-peptide binder], the binding result in assay [11] was “binds”.
In assay [9], HCSSAVGSWTWENGKWTWKG [N-terminal region peptide derived from ED-B peptide 2 (monopodal, one target binding region removed)] registered a Kd of 592000 nM. For the same molecule, in assay [10], the off-rate (koff) is 2.54 s⁻¹ and the on-rate (kon) stood at 4290 M⁻¹ s⁻¹.
Consider YAYPLLGSWTWENGKWTWKGWYQKWI [Peptide 2 specific to nAchR (Table 3d), bipodal-peptide binder], for which the binding result in [6] is “binds”.
YGAYPWGSWTWENGKWTWKGWRVSRD: the binding result (in assay [11]; with Human serum albumin) was “binds” throughout.
As to SANSLYGSWTWENGKWTWKGTSRQRW [Peptide 2 specific to HSA (Table 3e), bipodal-peptide binder], the binding result with Human serum albumin is “binds”.
The same measure, in the same setting: for YAHFGWGSWTWENGKWTWKGTTDSQS [Peptide 5 specific to HSA (Table 3e), bipodal-peptide binder] the value was “binds”.
Take AAPTSFGSWTWENGKWTWKGWQMWHR [Peptide 5 specific to VEGF (Table 3b), bipodal-peptide binder]: the binding result in [11] is given as “binds”.
In the case of MSADKSGSWTWENGKWTWKGQVRTRD [Peptide 1 specific to fibronectin ED-B (Table 3a), bipodal-peptide binder], the equilibrium dissociation constant (Kd) in assay [7] is 620 nM. In assay [8], this molecule returned a koff of 0.024 s⁻¹ and a kon of 38000 M⁻¹ s⁻¹.

By koff is commonly meant a measure of how fast the partners let go of each other. High values mean fast dissociation, low ones slow dissociation. As a reminder, the kon is the rate constant with which the complex forms. High values mean fast association, low ones slow association. The term Kd denotes the free concentration of one partner at which half of the binding sites on the other are occupied at equilibrium, for simple one-to-one binding. A lower Kd goes with a tighter complex.
